Laboratory results published in paper PMC10763564 (2023).
Starred links: 1 amine or outer side, 2 acyl side, 3 side chain; linkers in the order of their positions; H or OH if unused. Positions of bridges follow the written chain, without caps; N, C: chain ends. No end group written: not given here. TBMB = c1c(C[*:1])cc(C[*:3])cc1C[*:2]

Target: extracellular domain of Transferrin Receptor 1 (UniProt P02786 89-760)
Assay: BLI

Chain of extracellular domain of Transferrin Receptor 1 (P02786 89-760): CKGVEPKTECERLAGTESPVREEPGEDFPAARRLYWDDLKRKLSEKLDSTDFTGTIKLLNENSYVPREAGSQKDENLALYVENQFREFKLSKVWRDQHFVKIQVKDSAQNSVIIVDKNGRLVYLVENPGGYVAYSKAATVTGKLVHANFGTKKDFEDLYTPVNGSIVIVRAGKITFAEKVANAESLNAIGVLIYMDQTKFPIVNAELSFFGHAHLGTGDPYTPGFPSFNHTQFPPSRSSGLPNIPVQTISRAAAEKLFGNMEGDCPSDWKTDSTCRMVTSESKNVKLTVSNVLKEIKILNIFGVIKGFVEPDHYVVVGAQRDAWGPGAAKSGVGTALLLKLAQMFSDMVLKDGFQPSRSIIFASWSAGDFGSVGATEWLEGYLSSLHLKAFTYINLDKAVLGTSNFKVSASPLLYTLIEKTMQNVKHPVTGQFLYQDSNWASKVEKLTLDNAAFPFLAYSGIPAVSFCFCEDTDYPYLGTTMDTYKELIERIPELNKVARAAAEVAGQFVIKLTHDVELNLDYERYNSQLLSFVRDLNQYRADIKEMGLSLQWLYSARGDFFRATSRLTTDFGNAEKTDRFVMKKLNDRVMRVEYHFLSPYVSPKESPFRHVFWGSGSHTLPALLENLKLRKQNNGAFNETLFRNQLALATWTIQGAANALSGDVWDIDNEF

Kd: 25 µM
Binder: CVHWDCRQWC (linker 1-6-10 via TBMB) [BrainBike-4 as used in biolayer interferometry]
